Source: patent US20150344863

Molecular target: Factor X, P00742
Sequence (P00742 whole entry, looked up): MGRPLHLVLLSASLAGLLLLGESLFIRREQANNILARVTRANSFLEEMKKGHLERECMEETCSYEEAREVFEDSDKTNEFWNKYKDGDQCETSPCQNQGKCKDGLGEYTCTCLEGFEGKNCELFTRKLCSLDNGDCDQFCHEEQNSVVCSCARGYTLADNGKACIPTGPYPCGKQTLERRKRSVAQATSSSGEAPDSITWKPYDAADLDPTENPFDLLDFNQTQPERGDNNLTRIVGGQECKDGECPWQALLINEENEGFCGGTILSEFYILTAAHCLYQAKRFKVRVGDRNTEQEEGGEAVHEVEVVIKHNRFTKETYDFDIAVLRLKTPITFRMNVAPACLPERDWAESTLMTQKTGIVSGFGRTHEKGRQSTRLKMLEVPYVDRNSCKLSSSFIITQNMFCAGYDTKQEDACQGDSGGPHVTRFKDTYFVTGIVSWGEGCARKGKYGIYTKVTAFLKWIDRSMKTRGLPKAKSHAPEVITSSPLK

B1: desialylated wild-type Factor VII (dWT VIIa) (protein)
chain 1: ANAFLEELRPGSLERECKEEQCSFEEAREIFKDAERTKLFWISYSDGDQCASSPCQNGGSCKDQLQSYICFCLPAFEGRNCETHKDDQLICVNENGGCEQYCSDHTGTKRSCRCHEGYSLLADGVSCTPTVEYPCGKIPILEKRNASKPQGR
chain 2: IVGGKVCPKGECPWQVLLLVNGAQLCGGTLINTIWVVSAAHCFDKIKNWRNLIAVLGEHDLSEHDGDEQSRRVAQVIIPSTYVPGTTNHDIALLRLHQPVVLTDHVVPLCLPERTFSERTLAFVRFSLVSGWGQLLDRGATALELMVLNVPRLMTQDCLQQSRKVGDSPNITEYMFCAGYSDGSKDSCKGDSGGPHATHYRGTWYLTGIVSWGQGCATVGHFGVYTRVSQYIEWLQKLMRSEPRPGVLLRAPFP
Michaelis Menten kinetics of Factor X activation, Factor X titrated in the presence of sTF-Factor VII complexes (0.5 nM Factor VII, 125 nM sTF): dWT VIIa (dF7) can activate Factor X more effectively (approximately 2-fold) than wild-type Factor VII (F7)
